These results are taken from patent US20200040059A1 (ALPINE IMMUNE SCIENCES, published 2020).

Assay [1] concerns the target human ICOS as used for the 'ICOS OD' read-out of Table 14 (human). The assay is described as follows: binding read as OD; format not described.
Assay [2] has as its target PD-1-Fc. The assay is described as follows: Fortebio (BLI), PD-1-Fc. Background: Biolayer interferometry detects binding as a change in optical thickness at a sensor tip.

Substitutions are numbered along the chain they refer to. In names and notes the source's numbering stands.

Sequence of human ICOS as used for the 'ICOS OD' read-out of Table 14 (human) (Q9Y6W8 whole entry): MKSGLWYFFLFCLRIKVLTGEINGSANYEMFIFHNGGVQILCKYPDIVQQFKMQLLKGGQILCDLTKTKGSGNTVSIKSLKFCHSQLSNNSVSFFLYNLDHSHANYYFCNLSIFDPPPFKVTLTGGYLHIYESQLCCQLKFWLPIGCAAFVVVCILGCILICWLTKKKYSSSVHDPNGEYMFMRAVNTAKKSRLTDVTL

B1: ICOSL variant N52D ECD-Fc fusion (Fc fusion)
chain: DTQEKEVRAMVGSDVELSCACPEGSRFDLNDVYVYWQTSESKTVVTYHIPQDSSLENVDSRYRNRALMSPAGMLRGDFSLRLFNVTPQDEQKFHCLVLSQSLGFQEVLSVEVTLHVAANFSVPVVSAPHSPSQDELTFTCTSINGYPRPNVYWINKTDNSLLDQALQNDTVFLNMRGLYDVVSVLRIARTPSVNIGCCIENVLLQQNLTVGSQTGNDIGERDKITENPVSTGEKNAAT
notes: not shown: no entry of the listing is held
As to B1, in assay [1], the “ICOS OD” value turned out to be 1.59 OD and the “ICOS OD parental ratio” value was 1.85 ratio to WT ICOSL ECD-Fc.

B2: ICOSL variant N52S/S130G/Y152C ECD-Fc fusion (Fc fusion)
chain: B1 chain with D52S, S130G, Y152C
notes: not shown: The AAA linker to it is left out
On to B2, for which, in assay [1], the “ICOS OD” value was determined as 0.16 OD and the “ICOS OD parental ratio” value is 0.19 ratio to WT ICOSL ECD-Fc.

B3: ICOSL variant N52S/Y146C/Y152C ECD-Fc fusion (Fc fusion, not shown: a dimerising Fc or GST; small tags and cut ends)
chain: B1 chain with D52S, Y146C, Y152C
As for B3, in assay [1], the “ICOS OD” value is 1.26 OD and the “ICOS OD parental ratio” value is 1.47 ratio to WT ICOSL ECD-Fc.

B4: ICOSL variant N52H/N57Y/Q100P ECD-Fc fusion (Fc fusion)
chain: B1 chain with D52H, N57Y, Q100P
notes: as for B1
B4: in assay [1], the “ICOS OD” value came out at 1.57 OD and the “ICOS OD parental ratio” value was 1.83 ratio to WT ICOSL ECD-Fc.

B5: ICOSL variant F120S/Y152H/N201S ECD-Fc fusion (Fc fusion)
chain: B1 chain with D52N, F120S, Y152H, N201S
notes: not shown: C220S/R292C/N297G/V302C) and the AAA linker to it
On to B5, for which, in assay [1], the “ICOS OD” value worked out at 0.63 OD and the “ICOS OD parental ratio” value was 0.73 ratio to WT ICOSL ECD-Fc.

B6: variant PD-L2 IgV-Fc V89D (Fc fusion, not shown: a dimerising Fc or GST; small tags and cut ends)
chain: LFTVTVPKELYIIEHGSNVTLECNFDTGSHVNLGAITASLQKVENDTSPHRERATLLEEQLPLGKASFHIPQVQVRDEGQYQCIIIYGDAWDYKYLTLK
On to B6, for which the “Fortebio binding to PD-1-Fc Response Units” value in assay [2] amounted to 0.005 Response Units.
